Source: article PMC9089796, “Oxidative stress promotes fibrosis in systemic sclerosis through stabilization of a kinase-phosphatase complex” (JCI Insight, 2022)

Target: T1, full-length human SRC, purified (human, UniProt P12931 1-536)
T1 construct: also called full-length SRC; not shown: GST, N-terminal, cleaved
Assay: pull-down; His6-tagged PTP4A1 on Ni-NTA agarose beads (untreated, or treated with 0.5 mM H2O2 or 20 mM DTT for 1 hour); 0.5 μg SRC or 17.2 nmol GST-tagged SH3SH2 in 1 mL 60 mM HEPES pH 7.4, 5 mM MgCl2, 5 mM MnCl2, 1% BSA; 4°C, 2 hours; Western blotting
Settings: both partners purified

B1: His6-tagged oxidized PTP4A1 (residues 1-160), bound to Ni-NTA agarose (domain or fragment, human, UniProt Q93096 1-160, looked up)
chain: MARMNRPAPVEVTYKNMRFLITHNPTNATLNKFIEELKKYGVTTIVRVCEATYDTTLVEKEGIHVLDWPFDDGAPPSNQIVDDWLSLVKIKFREEPGCCIAVHCVAGLGRAPVLVALALIEGGMKYEDAVQFIRQKRRGAFNSKQLLYLEKYRPKMRLRF
modifications: oxidized: disulfide bond between Cys104 and Cys49
notes: also called oxo-PTP4A1; source: E. coli BL21 (DE3), purified (Ni-NTA, cation exchange); beads incubated with 0.5 mM H2O2 for 1 hour; not shown: His6, N-terminal, kept
B1: binds.

B2: His6-tagged PTP4A1 (residues 1-160), untreated, bound to Ni-NTA agarose (domain or fragment, human, UniProt Q93096 1-160, looked up)
chain: B1 chain
notes: Not treated with H2O2 or DTT; also called protein tyrosine phosphatase 4A type 1; untreated beads containing both oxidized and reduced PTP4A1; source: E. coli BL21 (DE3), purified (Ni-NTA, cation exchange); not shown: His6, N-terminal, kept
B2: binds.
